# The supplement of paper PMC9170038
# System: MS2 coat protein
# Assay: apparent KD of MS2 coat protein; designed switch direction (-1 OFF switch, 1 ON switch): -1; higher = weaker reporter binding
# Procedure, shortened: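 The apparent KD reported per design is the median over clusters of curve fits to normalised cluster fluorescence. The RNA switches were transcribed on Illumina chips by stalled E. coli RNA polymerase. SNAP-549-labelled MS2 coat protein was titrated from 0.7 or 1.5 nM, doubling up to 3 µM, in Tris-HCl pH 7.5 buffer containing KCl, MgCl2, BSA, DTT, tRNA and Tween-20, with no input, 200 uM small-molecule ligand, or an oligonucleotide input.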
# [1] = Eterna round: R95, input ligand: microRNA oligo, concentration not stated
# [2] = Eterna round: R95, input ligand: FMN 200 uM
# [3] = Eterna round: R95, input ligand: none
# [4] = input ligand: microRNA oligo, concentration not stated
Sequence,apparent KD of MS2 coat protein (input ligand: FMN 200 uM) [nM],apparent KD of MS2 coat protein (input ligand: none) [nM],apparent KD of MS2 coat protein [1] [nM],apparent KD of MS2 coat protein [2] [nM],apparent KD of MS2 coat protein [3] [nM],apparent KD of MS2 coat protein [4] [nM]
"CUAUCUAGAGGAUAUACGAGAUCGAAAGAUCGGCGAUCCCUACAUGAGGAUCACCCAUGUAGAAGGCUAGAUAG [Mod 16 - Jieux - Exclusion 2] (Eterna round: R97, puzzle: Exclusion 2)",99.5,18.6,,,,
CUAUGUUAGCAGGAUAUGCCAUUAUUCCUUUACGCAGAAGGGCUUACAUGAGGAUCACCCAUGUUACAUUUCAU [JR_E6_Sub084] (puzzle: Exclusion 6),,,15.7,,,
CUAUUACGAGGAUAUGAUUUAAAUAACAUGAGGAUCACCCAUGUUUUUACGUUAUUUUAUUUAGAAGGCGUAUUGU [JR_E5_Sub028] (puzzle: Exclusion 5),,,53.7,34.1,61.5,
"CUCAUGUGAGGAUAUCAGUAGUAAAAAAAUAAAAUUACUACUGAGAAGGCACAUGAGGAUCACCCAUGUGUCUU [EX4 331: Super Stable 31] (Eterna round: R96, puzzle: Exclusion 4)",,,,,,13.3
CUCAUGUGAGGAUAUGUGAUCAACCUUCUAUAUAGAUGAUGACAGAAGGCACAUGAGGAUCACCCAUGUAGAUC [Ex4 - 3 - 19] (puzzle: Exclusion 4),,,37.9,,,
"CUCCGGCGUGUAGGAUAUGGAUCCGAUUAGGAUCCAGAAGGACAUGAGGAUCACCCAUGUACAUGUCGGCGGUCGUCACCGGGC [salish99_ExNG1_r04_209] (Eterna round: R96, puzzle: Exclusion NG 1)",34,20.1,,,,14.4
"CUCGUGUGAGGAUAUCGAUUAUGGAAGUCUAGAUCCAUACGCGAGAAGGCACAUGAGGAUCACCCAUGUAAUGG [jl-ex4-4.35 ViennaUCT mod] (Eterna round: R97, puzzle: Exclusion 4)",68.3,176,,,,
"CUCGUGUGAGGAUAUUCACACCCGUUGCAGCGACGGACAAAGAAGAAGGCACAUGAGGAUCACCCAUGUAAAGA [Onan] (Eterna round: R97, puzzle: Exclusion 4)",97.8,192,,,,
CUCUUGUCAGGAUAUUAUGGACGAUAGCAGGACUACGUCAGUGAGAAGGGACAUGAGGAUCACCCAUGUAAAAU [Anqubi] (puzzle: Exclusion 4),,,72.6,,,
"CUCUUGUGAGGAUAUCUCCCAGCGAUUAAUUGGGCAGUCUGAGAGAAGGUACAUGAGGAUCACCCAUGUGAUAG [Eternabot (L1) Solution 73] (Eterna round: R97, puzzle: Exclusion 4)",69.3,61.7,,,,
CUCUUGUUAGGAUAUCAAACCAGCGGCGGAACCGCUGGUAGUGAGAAGGGACAUGAGGAUCACCCAUGUAAGAA [Bige] (puzzle: Exclusion 4),,,51.1,108,61.3,
CUGAGCUCAGGAUAUACAUGAGGAUCACCCAUGUGUUCCUGCGACGUUAGUUGCACAUGUAGAAGGGAGUUCGG [Less Extended Mod of JL - ex3-3.35 Brourd mod] (puzzle: Exclusion 3),,,218,,,
"CUGAGUAGUCAGGAUAUGUGGUACAAAAGUACAGCAGAAGGGAUUACAUGAGGAUCACCCAUGUUUACUUCAUG [Omei Ex6 B16] (Eterna round: R97, puzzle: Exclusion 6)",57.9,32.6,,,,
CUGAUGGACUAGGAUAUCCUCAUCGAUCAGGGAGGAGAAGGAGUCACAUGAGGAUCACCCAUGUGAUGGUAAAA [Atqubi] (puzzle: Exclusion 6),,,11.9,14.9,13.6,
CUGAUGUUAGGAUAUCAGGCGCCCGCCACUGGCAGGGCGCAUGAGAAGGGACAUGAGGAUCACCCAUGUAGUAA [Anorbeus] (puzzle: Exclusion 4),,,26.3,,,
"CUGCUCCGUGUAGGAUAUCCGCGCAACCAAUGCGGAGAAGGACAUGAGGAUCACCCAUGUAUGUUAUUAUCACGUGAAGCGUCC [Design 26] (Eterna round: R96, puzzle: Exclusion NG 1)",24.8,24.8,,,,13.7

Sequence,apparent KD of MS2 coat protein (input ligand: FMN 200 uM) [nM],apparent KD of MS2 coat protein (input ligand: none) [nM],apparent KD of MS2 coat protein [1] [nM],apparent KD of MS2 coat protein [2] [nM],apparent KD of MS2 coat protein [3] [nM],apparent KD of MS2 coat protein [4] [nM]
"CUGCUCCGUGUAGGAUAUGCAUGCAACCAAUAUGCAGAAGGACAUGAGGAUCACCCAUGUAUGUUAUUAUCACGUGAAGCGUCC [Design 22] (Eterna round: R96, puzzle: Exclusion NG 1)",27.1,29.8,,,,19.5
"CUGCUGGAGCUUUGCUUUAGUCGUACAUGAGGAUCACCCAUGUAGGAUAUGGUAGGCUUUGCUUACUAGAAGGAUGGAGUGGUC [salish99_ExNG3_r04_607] (Eterna round: R96, puzzle: Exclusion NG 3)",166,50.2,,,,38.1
"CUGCUGGAGCUUUGCUUUGGUCGUACAUGAGGAUCACCCAUGUAGGAUAUGGUAGGCUUUGCUUGCUAGAAGGAUAGAGUGGUC [salish99_ExNG3_r04_609] (Eterna round: R96, puzzle: Exclusion NG 3)",197,88.8,,,,77.5
CUGGUCCGAGGAUAUAUUAAGUGAAACAUGAGGAUCACCCAUGUAAUUUGAUGGAUGUAAAUAGAAGGCGGACUAG [JL-ex5-3.09] (puzzle: Exclusion 5),,,37.1,29.4,43.8,
CUGGUCCGAGGAUAUAUUAAGUGAUACAUGAGGAUCACCCAUGUUAUUUAAUGGAUGUAAAUAGAAGGCGGACUAG [Mat - Exclusion 5 - JL mod - D70] (puzzle: Exclusion 5),,,42.6,51,44.6,
CUGGUCCGAGGAUAUAUUAAGUGAUACAUGAGGAUCACCCAUGUUAUUUGAUGGAUGUUAAUAGAAGGCGGACUAG [JL-ex5-3.18] (puzzle: Exclusion 5),,,35.7,78.3,57.6,
"CUGUACUGAGGAUAUACAUGAGGAUCACCCAUGUGUUCCAGCUAGGAAACUAGCAAAUGUAGAAGGCAGUACAG [Mat - Exclusion 3 - Eli Mod - D50] (Eterna round: R97, puzzle: Exclusion 3)",307,342,,,,
"CUGUACUGAGGAUAUACAUGAGGAUCACCCAUGUGUUCCUGCUAGGAAACUAGCAAGGGUAGAAGGCAGUACAG [Mat - Exclusion 3 - Eli Mod - D46] (Eterna round: R97, puzzle: Exclusion 3)",100,15.7,,,,
"CUGUUCCGUGUAGGAUAUGCAUAUUCCCAUUAUGCAGAAGGACAUGAGGAUCACCCAUGUAUGUUAUUAUCAUGUGUUACAUGC [Design 8] (Eterna round: R96, puzzle: Exclusion NG 1)",635,36.4,,,,31.3
"CUUAAAAGGUAGGAUAUGCUAGACGAAAGUCUAGCAGAAGGACCUACAUGAGGAUCACCCAUGUGUCCAAUAAG [Mat - Exclusion 6 - Eli Mod - D23] (Eterna round: R97, puzzle: Exclusion 6)",50.6,86.3,,,,
"CUUAACUCAGGAUAUGCGGCGACAAACAUGAGGAUCACCCAUGUAAAUUGGUGAACCUGAGCAGAAGGGAGUACAA [EX5 B.2] (Eterna round: R97, puzzle: Exclusion 5)",66.4,22.6,,,,
CUUAGACAUGAGGAUCACCCAUGUGAGGAUAUGAAAUUAAUUAAUUAUUAAGUAUGAAUCAGAAGGCACAUAUG [Mat - Mod of Hyphema D36] (puzzle: Exclusion 1),,,81.6,79.9,78.9,
CUUAGACAUGAGGAUCACCCAUGUGAGGAUAUGAUGCGAUCGUGCUGACAUGAUCGCAUCAGAAGGCACAAAUG [Mat - Mod of JL D65] (puzzle: Exclusion 1),,,146,,,
"CUUAGCCUAAAAUCACGCAAGCUUCUUGCUUGUCUUAAGACAUGAGGAUCACCCAUGUCCGGGCUGAACUUAUGGAA [Enonzave] (puzzle: Sensor v3, turn-off variant 2)",,,21.1,17.8,17.4,
CUUCGUAUAGAGGAUAUAGGAUACCUCGGUGUCCUAGAAGGCUGUACAUGAGGAUCACCCAUGUACUUCAGAUC [Exclusion 6 - B - 14:d] (puzzle: Exclusion 6),,,12.6,,,
CUUGUGUGAGGAUAUCAGUAGUAGUACGAUAGUAUUACUGCUGAGAAGGCACAUGAGGAUCACCCAUGUUCUUC [Exclusion 4 - Mod Omei Ex4 344 mod v.4] (puzzle: Exclusion 4),,,23.6,,,
